Measurements: patent publication US20220031842A1 (JIANGSU HENGRUI MEDICINE, published 2022)
Substitutions are numbered along the chain they refer to. Values belong to the binder of their own block, whether it stands above or below them.

Legend:
[1] = molecular target: T1, Fusion protein of LAG-3 extracellular region and mIgG2a Fc (human); assay: ELISA, LAG-3-mFc captured by anti-mouse Fc on plate (which fusion: inferred)
T1 construct: Limits of the signal peptide are marked only by lost underlining; also called LAG-3-mFc; LAG-3-mFc fusion protein
T1 chain: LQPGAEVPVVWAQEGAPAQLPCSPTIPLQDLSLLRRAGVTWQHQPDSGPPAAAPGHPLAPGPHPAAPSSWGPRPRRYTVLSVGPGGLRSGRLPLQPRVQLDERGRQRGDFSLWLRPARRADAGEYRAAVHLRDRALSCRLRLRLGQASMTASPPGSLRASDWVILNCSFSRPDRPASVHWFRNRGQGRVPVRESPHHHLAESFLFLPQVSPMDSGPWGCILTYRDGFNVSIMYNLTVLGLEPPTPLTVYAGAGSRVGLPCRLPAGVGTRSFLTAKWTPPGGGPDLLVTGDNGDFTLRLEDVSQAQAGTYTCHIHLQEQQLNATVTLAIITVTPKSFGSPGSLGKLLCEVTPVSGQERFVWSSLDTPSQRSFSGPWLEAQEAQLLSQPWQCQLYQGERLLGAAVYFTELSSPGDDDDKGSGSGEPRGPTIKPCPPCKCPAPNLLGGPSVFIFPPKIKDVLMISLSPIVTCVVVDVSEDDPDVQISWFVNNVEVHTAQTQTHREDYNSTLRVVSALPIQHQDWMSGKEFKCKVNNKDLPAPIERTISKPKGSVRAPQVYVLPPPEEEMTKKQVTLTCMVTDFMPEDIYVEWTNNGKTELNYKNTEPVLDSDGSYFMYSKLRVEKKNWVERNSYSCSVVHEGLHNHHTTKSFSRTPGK
From the text: The binding ability of anti-LAG-3 antibody to human LAG-3 protein was detected by ELISA assay. LAG-3 fusion protein with Fc or mFc tag was immobilized into 96-well microtiter plate by binding to anti-Fc or anti-mFc antibody coated on the microtiter plate, the strength of the signal after the addition of the antibody was used to determine the binding activity of the antibody to LAG-3, the specific experimental method is as follows.
The goat anti-human Fc antibody (Jackson Immuno Research, Cat No. 109-005-008) or goat anti-mouse Fc antibody (Sigma, Cat No. M3534-1ML) was diluted to a concentration of 2 μg/ml with PBS buffer at pH 7.4 (Sigma, Cat No. P4417-100TAB), and added to a 96-well plate at a volume of 50 μl/well and then, the plate was incubated in the incubator at 37° C. for 2 hours. After discarding the liquid, the plates were blocked with 200 μl/well of blocking solution containing 5% skim milk (Bright Dairy, skim milk powder) in PBS, and incubated in the incubator at 37° C. for 2.5 hours or overnight at 4° C. (16-18 hours). After blocking, the blocking solution was discarded and the plate was washed 5 times with PBST buffer (PH7.4 PBS containing 0.05% tween-20). LAG-3-Fc fusion protein (SEQ ID NO:3, produced in-house) or LAG-3-mFc fusion protein (SEQ ID NO: 4, produced in-house) was diluted with sample diluent (PH7.4 PBS containing 1% BSA) to 1 μg/ml and was added to each well, 50 μl/well. Then the plate was incubated in the incubator at 37° C. for 1 h or overnight at 4° C. After incubation, the reaction solution in the plate was discarded, and the plate was washed with PBST for 6 times, and then was added with 50 μl/well of various concentrations of antibodies to be tested (hybridoma purified antibody or humanized antibody) which have been diluted with sample diluent, and the plate was incubated at 37° C. for 1 h. The plates was washed 5 times with PBST after incubation, and was added with 100 μl/well of goat anti-mouse (Jackson Immuno Research, Cat No. 115-035-003) or goat anti-human secondary antibody (Jackson Immuno Research, Cat No. 109-035-003) labeled with HRP, diluted in sample diluent, and the plate was incubated at 37° C. for 1 h.

[2] = molecular target: T2, Fusion protein of LAG-3 extracellular region and hIgG1 Fc (human); assay: competition: biotin-LAG-3-Fc binding to fixed Daudi cells, antibody titrated
T2 construct: Limits of the signal peptide are marked only by lost underlining; also called LAG-3-Fc; LAG-3-Fc fusion protein
Description: Daudi cells (human leukemia cells, purchased from the cell bank in Chinese Academy of Sciences) were seeded in 96-well plate with a density of 3×10⁵/well. After centrifugation at 1000 rpm, the supernatant was discarded and then the plate was fixed with 4% PFA for 30 min at room temperature. The plate was washed 4 times with PBS after discarding the fixed solution, and the plate was blocked with 200 μl/well of blocking solution containing 5% skim milk (Bright Dairy, skim milk powder) diluted in PBS, and incubated at 37° C. for 2.5 hours. After blocking, the blocking solution was discarded and the plate was washed 5 times with PBST buffer (pH7.4 PBS containing 0.05% tween-20), added with 50 μl/well mixture of biotin-labeled (Biotin labeling kit, Dojindo Chemical, Cat No. LK03) LAG-3-Fc fusion protein (produced in-house, SEQ ID NO: 3) and gradient concentrations of the antibody to be tested, wherein the biotin-labeled LAG-3-Fc fusion protein has been diluted with sample diluent (PH7.4 PBS containing 1% BSA) at a final concentration of 0.4 μg/ml, and pre-mixed for an hour, then the plate was incubated at 37° C. for 1 h. The reaction solution was discarded and the plate was washed 5 times with PBST after incubation, 50 μl/well of HRP-labeled Streptavidin (Sigma, Cat No. 52438) diluted with sample diluent was added, and the plate was incubated at 37° C. for 1 h. After washing the plate 5 times with PBST, 50 μl/well of TMB chromogenic substrate (KPL, Cat No. 52-00-03) was added to each well, and incubated at room temperature for 5-15 min, the reaction was stopped by the addition of 50 μl 1M H₂SO₄ to each well. The OD value at a wavelength of 450 nm was read on NOVOStar microplate reader, and then the activity of the LAG-3 antibody in blocking the binding of the antigen to Daudi cells was calculated.

[3] = molecular target: T3, LAG-3 extracellular domain with a Flag tag (human, UniProt P18627 23-434); assay: SPR (Biacore), antibody captured on anti-human capture chip, LAG-3-Flag in flow
T3 construct: also called LAG-3-Flag; LAG-3-Flag antigen
T3 sequence: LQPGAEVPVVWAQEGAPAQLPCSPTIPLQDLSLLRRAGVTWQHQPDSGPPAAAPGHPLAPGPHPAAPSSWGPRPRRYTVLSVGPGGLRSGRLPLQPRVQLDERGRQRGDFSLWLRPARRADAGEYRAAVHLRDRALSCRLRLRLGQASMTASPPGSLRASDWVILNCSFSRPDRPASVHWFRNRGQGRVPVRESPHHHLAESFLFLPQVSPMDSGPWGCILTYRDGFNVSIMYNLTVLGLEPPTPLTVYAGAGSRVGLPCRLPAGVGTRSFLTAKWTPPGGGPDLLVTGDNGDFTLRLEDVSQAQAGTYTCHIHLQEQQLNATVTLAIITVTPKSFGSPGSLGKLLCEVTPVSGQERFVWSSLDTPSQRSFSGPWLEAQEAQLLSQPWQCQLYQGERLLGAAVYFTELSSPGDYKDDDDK
From the text: 2. […] Then, the LAG-3-Flag antigen (produced in-house, SEQ ID NO:1) was flowed through the surface of the biochip, and the reaction signal was detected real time using a Biacore instrument to obtain the binding and dissociation curves, the value of affinity was obtained by fitting, see table 10 below. After each cycle of dissociation was finished in the experiment, the biochip was washed and regenerated with a regeneration solution provided in the human anti-capture kit.

B1: Hu229-014 (antibody, human IgG4 S228P, kappa, V domains shown)
VH: QVQLVQSGSELKKPGASVKVSCKASGYTFTTSGMSWVKQAPGQGLKWMGWINTYSGVPTYADDFKGRFVFSLDTSVSTAYLQISSLKAEDTATYYCARDNYDARDVYYYAMDYWGQGTTVTVSS
VL: DIQMTQSPSSLSASVGDRVTITCRASENIYSNLAWYQQKPGKAPKLLVYAATNLADGVPSRFSGSGSGTQYTLTISSLQPEDFATYYCQHFWITPWTFGGGTKVEIKR
notes: Humanized mAb229
EC50 [1]: 0.153 nM | IC50 [2]: 0.718 nM | Kd [3]: 0.0374 nM

B2: Hu229-011 (antibody, human IgG4 S228P, kappa, V domains shown)
VH: B1 VH with K38R, T93V
VL: B1 VL with A43S
notes: Humanized mAb229
EC50 [1]: 0.201 nM | IC50 [2]: 0.566 nM

B3: Hu229-016 (antibody, human IgG4 S228P, kappa, V domains shown)
VH: B1 VH with Y95F
VL: B1 VL with V48I, Q70D, Y71F
notes: Humanized mAb229
EC50 [1]: 0.154 nM | IC50 [2]: 0.875 nM

B4: Hu229-009 (antibody, human IgG4 S228P, kappa, V domains shown)
VH: B1 VH with K38R, T93V
VL: B1 VL with Q70D
notes: Humanized mAb229
EC50 [1]: 0.152 nM | IC50 [2]: 0.559 nM | Kd [3]: 0.0488 nM

B5: Hu303-004 (antibody, human IgG4 S228P, kappa, V domains shown)
VH: QVQLVQSGAEVKKPGASVKVSCKASGYTFTDYYMNWVRQAPGQRLEWMGVINPYNGDTAYNQKFKGRVTITRDTSASTAYMELSSLRSEDTAVYYCARDDGYYDYYFDVWGQGTTVTVSS
VL: DIQMTQSPSSLSASVGDRVTITCRASQDIGSRLNWYQQKPGKAPKLLIYATSTLDSGVPSRFSGSGSGTDFTLTISSLQPEDFATYYCLQLASSPPTFGGGTKVEIKR
notes: Humanized mAb303
EC50 [1]: 0.278 nM | IC50 [2]: 0.502 nM | Kd [3]: 1.06 nM

B9: Hu303-016 (antibody, human IgG4 S228P, kappa, V domains shown)
VH: B5 VH with F29L, R72V, T74K, A97T
VL: B5 VL with L46R, S60K, G66R
notes: Humanized mAb303
EC50 [1]: 0.161 nM | IC50 [2]: 0.395 nM | Kd [3]: 0.0748 nM

B10: Hu303-014 (antibody, human IgG4 S228P, kappa, V domains shown)
VH: B5 VH with F29L, R72V, T74K, A97T
VL: B5 VL
notes: Humanized mAb303
EC50 [1]: 0.232 nM | IC50 [2]: 0.467 nM | Kd [3]: 0.491 nM

B12: Hu303-005 (antibody, human IgG4 S228P, kappa, V domains shown)
VH: B5 VH
VL: B5 VL with L46R, G66R
notes: also called LAG-3 antibody Hu303-005; LAG3 antibody Hu303-005
EC50 [1]: 0.309 nM | IC50 [2]: 0.622 nM | Kd [3]: 0.0715 nM

B13: Hu303-017 (antibody, human IgG4 S228P, kappa, V domains shown)
VH: B5 VH with F29L, R72V, T74K, A97T
VL: B5 VL with Y36L, P44F, L46R, S60K, G66R
notes: Humanized mAb303
EC50 [1]: 0.168 nM | IC50 [2]: 0.398 nM

B15: Hu303-009 (antibody, human IgG4 S228P, kappa, V domains shown)
VH: B5 VH with R72V, T74K, A97T
VL: B5 VL
notes: Humanized mAb303
EC50 [1]: 0.316 nM | IC50 [2]: 0.417 nM | Kd [3]: 0.943 nM

B16: Hu303-006 (antibody, human IgG4 S228P, kappa, V domains shown)
VH: B5 VH
VL: B5 VL with L46R, S60K, G66R
notes: Humanized mAb303
EC50 [1]: 0.288 nM | IC50 [2]: 0.821 nM | Kd [3]: 0.0753 nM

Second part, the binder after the results:

EC50 [1]: 0.277 nM | IC50 [2]: 0.471 nM
B6: Hu303-019 (antibody, human IgG4 S228P, kappa, V domains shown)
VH: B5 VH with F29L, M48I, V68A, I70L, R72V, T74K, A97T
VL: B5 VL
notes: Humanized mAb303

EC50 [1]: 0.145 nM | IC50 [2]: 0.36 nM
B7: Hu303-022 (antibody, human IgG4 S228P, kappa, V domains shown)
VH: B5 VH with F29L, M48I, V68A, I70L, R72V, T74K, A97T
VL: B5 VL with Y36L, P44F, L46R, S60K, G66R
notes: Humanized mAb303

EC50 [1]: 0.17 nM | IC50 [2]: 0.456 nM
B8: Hu303-021 (antibody, human IgG4 S228P, kappa, V domains shown)
VH: B5 VH with F29L, M48I, V68A, I70L, R72V, T74K, A97T
VL: B5 VL with L46R, S60K, G66R
notes: Humanized mAb303

EC50 [1]: 0.14 nM | IC50 [2]: 0.345 nM
B11: Hu303-020 (antibody, human IgG4 S228P, kappa, V domains shown)
VH: B5 VH with F29L, M48I, V68A, I70L, R72V, T74K, A97T
VL: B5 VL with L46R, G66R
notes: Humanized mAb303

EC50 [1]: 0.244 nM | IC50 [2]: 0.608 nM
B14: Hu303-018 (antibody, human IgG4 S228P, kappa, V domains shown)
VH: B5 VH with F29L, R72V, T74K, A97T
VL: B5 VL with I21L, Y36L, K42G, P44F, L46R, S60K, G66R, T85D
notes: Humanized mAb303

EC50 [1]: 0.152 nM | IC50 [2]: 0.369 nM
B17: Hu303-023 (antibody, human IgG4 S228P, kappa, V domains shown)
VH: B5 VH with F29L, M48I, V68A, I70L, R72V, T74K, A97T
VL: B5 VL with I21L, Y36L, K42G, P44F, L46R, S60K, G66R, T85D
notes: Humanized mAb303
